Reference: the DeepSol protein solubility set

Assay: soluble on expression in E. coli; label from the status in PepcDB or PDB records

Soluble on expression in E. coli, not soluble:
MGSDKIHHHHHHMINIFKPRTLTFYLVKSMDVLELLSELVSFNTVNDPNKGIKPSKECPRFIKDQLDSWDIESEIIERSGYYAVYGEIGDGTPRLLFMAHFDVVPVNLEEWETDPFELTIKENKAYGRGSADDKGNVAAVMLALKELSKEEKLNGRVIFAFTGDEEIGGAMAMHIAEKLSKEGKVPKYMINADGIGMKPIIRRRKGFGVEIKVYPRKVKVKGRVREIEFEPKTPVVETRHAAYFLPGVDTHPMVALSHFLRNSNAVAISLDGAFIKGNVIPGKVKLKYVEPGEGEEVEGDLSLTALLKAIVPIVRAPIKAEKYSDYGVSITPNVYSFDGSHVLKVDVRAMSYSKDDIEKTLREVLNFNLPEAELIIKENEKAGYLFTSPDDELVRVTLRILKELGEDVEPIEGPGASDSRYFTPLGVKAIDIGPRGGNIHGPNEYVEVDSLRKMPEIYRRIALSLLL
MGSDKIHHHHHHMINPAHFDLQSLRIFLQVAQSGSLTKAAEKFHITLSALSKRIAELERTVDCALFIRMPRGLTLTPAGKELVNLAGNVLSNVERMASEMNDYAVGVRGHVHMWANTSAIIQFLPQDLASFLPTRPLIRINLEEKLSKTVVTALAMGEADIGIFVDNVGSQGVEKIPYRKDKLVVLVPPQHPLSALSDVSFNDTLGYDYVGLNSGSSLLKQLKDASDELGRVLRLRVQVSSFDGICRMIEAGLGISVLPEGAIRPEVLGTGLRAINLTDEWASRQLWLGVKSGAILQPEVTNLLTHLRQCGA
MGSDKIHHHHHHMINSYISQQIERNFPYKPTDDQFLALHTLTEFLLSEEPDSLLLMKGYAGTGKTSLVGALVKTLNELKQKTFLLAPTGRAAKVFSGYAGQKAYTIHKKIYRQRAFSNEPTGFMPADNLHKDTLFIVDEASMIANEGLDSFVFGSGRLLDDLIQYVYSGENCRLILMGDVAQLPPVMQTESPALNPEILRGYNLQVWEIALTQVVRQSEDSGILFNATRLRDALRNHTVEIFPKLQLKGFSDFTKVNGDELIEEISSAYSRDGMEETMIISRSNKRATIYNNGIRNRILYREEELSSGDRLMVAKNNYYWTANCKEMDFIANGEIIQVMRVRRVTEMYGFRFADITARFQDYDLEIDLKILLDTLQTDSPALPKELNDKLFYTILEDYEDIPTKAGKMKKMKVDPHYNVVQVKYAYAVTCHKAQGGQWMNVFLDIGYITEEMLGEDFYRWLYTAFTRATHHLYLVNLPDEFVE
MGSDKIHHHHHHMINYTELEENIKKNNIENVYIMCGFNEKLMKESINKILKKSISQDFESLNYSVFDGNEVEFEDILNACETVPFMSEKRMVVVYRAGFLNDNSSGSNKNSDKLIKDIEKYVPNVPKHCILVMYYVFDNTREKPSYRVKKFDKKVCVVEFSKLRGMQFQKKVKDVFAEKGKQIGKTELNYFCSRVENNMDIVYNEIEKLCCYTLEKEITKESIDNLLQPNETDDIFNLVDYISQSKPEMAITVLNEIMYKGVKANSILYMVERQFKLMLSIKIGIENKQSKEALVKELKLNPYVCDKMINECKRFTMKKILKSLDICLRTEKELKSVSGDPKFKMEVLIINLAII
MGSDKIHHHHHHMIPFNKPHLTGKEVHYIYEAVHSGKISGNGIFTKKCHDFFTSTYGFTKTLMTSSCTDALEMSSLLMDIQPGDEIILPTFTFVSTANAFVLRGAKLVFVDSLATEPNMNVELIEGLITSKTKAIVVVHYAGVACDMDVVMNIAKKYQLFVVEDAAQAISSYYKDKPLGGIGDFGAFSFHETKNIISGEGGLLAINNSDYCNRSEIIWEKGTNRSAFFRGETDKYGWVDVGSSFLPSEIISAFLYAQLENVAEIQAKRLEIWNTYYNTLSPLAEHKKLRLPYIPAYATNNAHMFYVICNSLEERTALIDYLKAHNILAVFHYLSLHKSPYFSDKHDGRSMDYADQYAETLVRLPLFYDLSTEDQEFICTKILSFYSEKI
MGSDKIHHHHHHMIQGKKVVSTLDVSDLEPGKKHLLYFQGVEMPTGQHWHVSVTVAKGAKPGKRGVLVSGVHGDEMSSVHTIQTVMSQLDPAQMSGTVMAVTDVSRPAMEGMQRRWPNFGRGTDLIDMNREWPGNENGVTAASRQAGLLFNRLLRPNADFAIDFHTGTTGFDVAAFNIGGMDVPEIKAMLELYPVGQIFDNHVYPSVLHNAFIAAGIPSFCPEIGAARVLDLEMISLFVEGTMNVLKHHGIVAGPMGRTGKDVHVFVGNSAFPILATAGGLVEHLVKLNDKVEAGQKLAIQRDSFGEVVAEYASGVAGEISGLRSDAMSEPGNPLVFVLFNKPGPEDVGGYPE
MGSDKIHHHHHHMITRLHEPYLALLQQAMLAATPSGSRVALDLGCGDGSKTRWLRACSASDALIVGVDRDGSVLRAADDMMFIAGDASHLPLRDACIDLVWCIAALNLFPHRHLALREMWRVLRHGGTLVVASAGEYWVRLRNHPAPLIAALPDTPLPLPPADGLDEEWLLLMAAAGFQPRQTQAYLLDGGRLAQVALINSEALTSYLSLPPCASPVADPEPRHLLIVTSARKG
MGSDKIHHHHHHMITTDSGEQVEALAPIIISASRSTDIPAFYAKWFFNRLAKGYCVWYNPFNRRKMYVSFERCKAIVFWTKNPKLILPYLHELDRRGIHYYFQFTLNDYVSEGFEPNVPSVTQRVETFRELSEMIGKERVIWRFDPLIMTPSITPRVLLSRIWKIGNLLKGYTDKLVFSFVDVKAYRKVQNNLIKETNCFTKEDVETAEMNATQRQETVEGLVKLREIWASTGWNVTLATCAEDIDLTVYGIEHNRCIDGDLMERVFEEDYELVYYLRTGQLPEPDLFGTFPALPDKRKDLKDKGQRKACGCMISKDIGRYNTCRHFCVYCYANTSRECVQKNAVHYSDDSESLIRS
MGSDKIHHHHHHMITYFELKNFRSFSNITLDLRKAYGKPKKVVFIYGENGSGKSNLMSSFLFLLQTLNTFKNQVELKDMPEYKSNLFESIKDDKIRHQLLQQILHMQFITLSNLIDEYKMLGNEKNMSTKFGFRIEESDGSYFMEFSKDKIIKEELRYQINEREGTVFSISKNQITLSPTVFLDLDYKKELQDNIEKYWGKHTFMAILCNEIETKNSNYIKAKINKNLLNVIWEMRGLSVWCKECHGETARISIPLKFMRQLDEGSVKDQNNKELKLCETALNTFFTQLYSDIKAVHYVFTPNENDYSYELCFKKLIDGKLIDIPISLESTGTRKLLEIFPMLFGSVAGTPVFVDEIDSGIHDVLMKNLLERLLESIEGQLIATTHNTLLMESLPTENTYIIRVNATGNKSIDCVANYRQRTQKTNSMRNKYLRGDYDGIPYTGYFDFQELVEDVLDNIPSSDNEDGDEA
MGSDKIHHHHHHMIYCDHCVMPNTRPGINFTKDKEGKNICSACINHKNKENIDYKARFKELEVLCDKYRRMNGKFEYDCAIAVSGGKDSHFQVHIMKEKLGMNPILFSVEDNFTMTEAGKKNLKNLSETFGCHIISLKPDIKTQKKVMLKTFEKYGKPTWFIDRLIYSYPFAMALKFNTPLLVYGENVSYEYGGSDTEETPSAKEIFLNGVASDLNINEFIDDEIKEENLQLFFNPNKDKLDKLNPIYLSYFVKWNSYSNYIFAKSRGFTDLEGEWDRTMCAENFDQVDSIGYILHAWMKYPKFGHACASDYAARFVRYGLLSRKEAIELVQKRDHKLDNKCVEDFCNFIGISKTTFWKIVEKHYNMDLFYKNDFGEFKLKNKLQ
MGSDKIHHHHHHMIYKADNNVRQKLVEMFDDFDSTIVLSYLQGHMGSAWVDNLENPTVAQITVGIFVFYAGNPNAEEAEELLYNLPDFTLAIVDSDEWKKRIETVHKGSIEKFQRFRFNKNPGDLDKEYIRDILSTLPQNYEMKKIDKDIAKASSFHALSEDFTSQFDSIDDFIDRGVGYAILNKGQVVSAATSFSIFDDGIEIEIASHPEHRRKGLAKIVASALILDCLDREKYPSWDGANVESVELAKKLGYTFKEPYDTYFIQIKK
MGSDKIHHHHHHMKAANLAPCLMAMLLCTACEQLPIARKAPPPPPPATTAAKPAEQPRPTPIAAHDISLAGTCRRTEDDGFREDAVMRVVSNDVKSLKWKLWVSKRGTCQFDLADFKQVQKTPHIVLEATDGTQCKLLIWQDPRRVTLAHANCQQRCTPGIYEQAWPVLFNPRNGDCAEIR
MGSDKIHHHHHHMKCLRESAIVAYAETKVMEKSDRDVWELDAEVLEALLERSGFEKGEIDGLVMAGFGLTAAGESFWAQVTADQLGLELDYCDQVHIGGCSATGSVARAAAAIDAGLCTTVLLLFADTGVAENNRGDRSFRREWADPYGVFGPPDAFGLLTRRYEHQYGLDYEMLGKLAVTQRAHAVLNENACEKLRKPITIDDYLNSRMIADPIRLLDCVMRCDAASGLLMTSRRRAREKGIDKFITPIGYGERTNFQGGENFVDVTRSGHEACGKRALAQAGLALKDVASFHPYDDFIIAIMLQLEAFGFCGRGQGVQFIREMNFSFDGDLPLNTGGGQISAGQAACCSHNLIEAIRQLMGEGGARQVRNTANALVSGIGWINYSRNWGTSSALVLAPNA
MGSDKIHHHHHHMKDNFFGREYDIAPAGGETGQAFVATHEDEKFFLKRNSSPFLAALSVENIVPKLVWTRRVENGDVITAQKWVNCHILTREEMVGPRVAKLLAKIHHSENLQHMLAKIENCYFSADQLLSLIKVNTKANNELSKEIIAAIRYLEQNLSAAQTNDYVVCHGDVNHNNWIISEENELFLVDWDGAMLADPANDIGMILYQYIPRKDWVSWLSNYGTTLTEELHRKLKWYTICQTVMQLITEHSNEANERAKQIFQNAIEDDEV
MGSDKIHHHHHHMKEILLKAENVRAYYKLEKVSVKAVDGLSFEILEDEVIGVVGESGCGKTTLSNVIFMNMVKPLTLVDGKIFLRVNGEFVELSSMTRDEVKRKFWGKEITIIPQAAMNALMPTIRMEKYVRHLAESHGIDEEELLDKARRRFEEVGLDPLWIKRYPFELSGGMRQRAVIAIATILNPSLLIADEPTSALDVVNQKVLLKVLMQMKRQGIVKSIIFITHDIATVRQIADRMIIMYAGKIVEFAPVESLLEKPLHPYTQGLFNSVLTPEPEVKKRGITTIPGAPPNLINPPSGCRFHPRCPHAMDVCKEKEPPLTEIEPGRRVACWLYMEERA
MGSDKIHHHHHHMKETWISERRMIQLPGLTIDRHISAPNELEFPGCKYHLLCILLSDHNQQKMTRIGEQESQKSQAKGDFWICPAKMSGIWSWNSTDESLTFVIDPLFLSRMAEEVGELNESKVELLSTVNAHDPQIEAIARLFQAEFDTGGLGGHLYAESLIQVLIVHLLRQYCAFSPKIKPDVGSMPNNRLQPVFDYIHSYLDRPLLLAELAEISGISQYYFCRLFKQSMGVAPYQYVLQQRMEKAKELLHQRKYAIAEIALLVGCADQSRFTRHFKKYVGVTPRMFLSKK
MGSDKIHHHHHHMKFVVSSNALLKQLTAINGVITTNPVVPILENFLFEIGDGMLVVYASDLQTSMITEIAVEAKAKGSIAVPAKILLDTLKNLPEQPVTFTIDPETYSIEISSDNGRYKLSGENATDFPKVPGVKNGYSVDISTEILNRAISSTIFAASNDELKPAMTGVYVSLTESNATFVATDGHRLIRYRRTDIVSEMANTLIIPKKALNLLKASLPSENTNVKIEYNASNAFFSFNNIKMICRLIDERFPDYENAIPVDNPNVLTITRTDMMNSLKRISIYANKTTHQVRLKLAGSELQISAEDLDFSNEANERLACEFEGQDMEIGFNAKFLVEMLSNLDSPQISMHFSAPNRAGIITPADKDEHEDVLMLVMPVMLNSYA
